The results in this text go back to patent publication US20230293649A1 (BIOVENTURES, published 2023).

In data set [1] the target is T1, cathepsin K (Cathepsin K Drug Discovery Kit, Enzo Life Sciences) (UniProt P43235 115-329, limits assumed).
T1 construct: also called CTSK; CatK
T1 sequence (looked up): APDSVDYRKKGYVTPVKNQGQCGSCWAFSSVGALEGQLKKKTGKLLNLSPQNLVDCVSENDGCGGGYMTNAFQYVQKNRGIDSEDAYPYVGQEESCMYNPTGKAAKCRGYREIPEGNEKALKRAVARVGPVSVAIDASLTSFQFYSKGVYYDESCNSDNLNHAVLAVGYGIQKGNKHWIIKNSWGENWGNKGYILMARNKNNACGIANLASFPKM
Put plainly: inhibition of cathepsin K cleavage of the fluorogenic substrate Z-Phe-Arg-AMC; non-linear regression of initial rates. How it is done:
The ability of recombinant CST6 (R&D Systems, Minneapolis, MN) to inhibit cathepsin K protease activity was assessed using the Cathepsin K Drug Discovery Kit (Enzo Life Sciences International, Plymouth Meeting, PA). Fluorimetric assays were done in triplicate in 96-well microtitre plates using cathepsin K, the fluorogenic synthetic substrate Z-Phe-Arg-AMC in the presence of the cathepsin K assay buffer. Inhibitory activity of CST6 towards cathepsin K was measured in serum-free conditioned media from the H929 cell line stably infected with pWPI or CST6 lentivirus. Conditioned media equating to 25 μg was added to each well and inhibitory activity was evaluated by measuring the residual enzyme activity. Recombinant CST6 was added to assays at various concentrations and the resultant fluorescence was measured using a SpectraMax M2 microplate reader (Molecular Devices, Sunnyvale, CA) with excitation at 380 nm and emission at 460 nm wavelengths. The initial rates from the CatK progress curves in the presence of predetermined concentrations of recombinant CST6 were subjected to non-linear regression analysis (Morrison and Walsh, 1988) using GraFit® software (Erithacus Software Limited, Surrey, UK) to determine the inhibition constant (Ki).

The next data set has as its target T2, N-cadherin, P19022.
T2 chain: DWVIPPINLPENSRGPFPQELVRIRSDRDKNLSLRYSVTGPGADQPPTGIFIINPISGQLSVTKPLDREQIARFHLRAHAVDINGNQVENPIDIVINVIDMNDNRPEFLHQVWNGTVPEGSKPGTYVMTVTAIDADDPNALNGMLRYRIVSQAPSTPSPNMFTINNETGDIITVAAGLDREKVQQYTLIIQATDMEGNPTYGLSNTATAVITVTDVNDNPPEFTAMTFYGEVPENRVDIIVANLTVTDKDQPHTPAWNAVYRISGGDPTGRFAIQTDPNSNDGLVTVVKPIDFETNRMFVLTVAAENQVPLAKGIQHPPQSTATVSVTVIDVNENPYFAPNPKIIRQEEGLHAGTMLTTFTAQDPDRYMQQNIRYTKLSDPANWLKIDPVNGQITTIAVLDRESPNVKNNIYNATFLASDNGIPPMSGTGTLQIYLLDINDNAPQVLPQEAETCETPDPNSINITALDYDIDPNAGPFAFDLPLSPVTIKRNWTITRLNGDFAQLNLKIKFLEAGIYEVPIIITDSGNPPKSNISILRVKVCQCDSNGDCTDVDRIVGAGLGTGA

The target of data set [2] is T3, recombinant CST6 (R&D Systems, Minneapolis, MN), Q15828.
T3 chain: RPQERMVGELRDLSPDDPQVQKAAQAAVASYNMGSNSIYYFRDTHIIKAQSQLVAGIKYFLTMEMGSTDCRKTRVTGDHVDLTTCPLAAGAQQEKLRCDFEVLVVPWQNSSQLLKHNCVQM

Another data set concerns the target T4, E-cadherin, P12830.
T4 chain: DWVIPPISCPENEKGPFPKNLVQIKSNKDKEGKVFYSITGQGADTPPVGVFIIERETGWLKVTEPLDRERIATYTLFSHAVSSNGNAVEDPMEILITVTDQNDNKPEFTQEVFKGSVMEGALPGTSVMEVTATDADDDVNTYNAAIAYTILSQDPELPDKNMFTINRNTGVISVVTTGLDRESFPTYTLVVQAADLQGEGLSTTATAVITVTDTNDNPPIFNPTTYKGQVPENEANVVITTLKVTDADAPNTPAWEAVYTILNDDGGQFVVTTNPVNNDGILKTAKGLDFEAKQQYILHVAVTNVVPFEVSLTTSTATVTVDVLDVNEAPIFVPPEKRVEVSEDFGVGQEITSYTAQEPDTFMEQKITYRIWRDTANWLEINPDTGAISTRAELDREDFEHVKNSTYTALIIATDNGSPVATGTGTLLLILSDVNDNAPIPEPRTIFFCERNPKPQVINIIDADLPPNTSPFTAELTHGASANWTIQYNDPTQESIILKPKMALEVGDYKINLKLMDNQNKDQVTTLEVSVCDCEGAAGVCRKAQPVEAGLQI

B1: recombinant CST6 (R&D Systems, Minneapolis, MN) (other, UniProt Q15828 29-149, looked up)
chain: T3 chain
notes: also called recombinant cystatin E/M; cystatin M/E
What is called Ki is a measure of affinity in units of concentration, obtained from inhibition or displacement. A lower Ki goes with a stronger hold on the target. Consider B1, for which the inhibition constant (Ki) in data set [1] is 3.84 nM.

B2: cathepsin K (Cathepsin K Drug Discovery Kit, Enzo Life Sciences) (protein)
chain: T1 sequence (looked up)
For the molecule B2, in the data set with N-cadherin, P19022, the “cleavage of N-cadherin (in vitro assay)” value was “cathepsin K can cleave E- and N-cadherin using an in vitro assay”. The “cleavage of E- and N-cadherin by cathepsin K (in vitro assay)” value in data set [2] is on record as “the addition of recombinant Cst6 can inhibit this cleavage”. Moreover, the “cleavage of E-cadherin (in vitro assay)” value with E-cadherin, P12830 was “cathepsin K can cleave E- and N-cadherin using an in vitro assay”.
